Target: linear triubiquitin (UniProt P0CG48)
Test: BLI

linear triubiquitin, sequence (P0CG48 1-228): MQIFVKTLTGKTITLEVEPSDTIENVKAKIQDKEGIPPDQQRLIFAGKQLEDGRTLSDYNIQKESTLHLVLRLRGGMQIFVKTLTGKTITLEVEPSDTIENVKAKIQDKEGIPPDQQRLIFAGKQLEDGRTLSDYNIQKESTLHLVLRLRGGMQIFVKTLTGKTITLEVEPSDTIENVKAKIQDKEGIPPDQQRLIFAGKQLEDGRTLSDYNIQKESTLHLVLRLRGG

- binding result: binds
Binder: PKQRCRAPACDHFGNAKCNGYCNECFQFKQMYG (domain or fragment, biotin (singly biotinylated)) [singly biotinylated A20 zinc finger 7 (ZnF7: P758-G790)]
